The source of these data is patent publication US20240392271.

For this data set, the system named is dXR (PTBP1 experiment; KRAB not stated in the excerpt) (synthetic construct). Put plainly: cell_activity. Particulars: mouse astrocytes, day 11.

In the case of “CAGCGGGGAUCCGACGAGCU / CAGCGGGGATCCGACGAGCT / AGCTCGTCGGATCCCCGCTG [gRNA spacer 28.10 ; PTBP1 target 28.10]”, the activity (PTBP1/total protein relative to NT) (no clear repression) was found to be 0.945. Take “ACAGCAUCGUCCCAGACAUA / ACAGCATCGTCCCAGACATA / TATGTCTGGGACGATGCTGT [gRNA spacer 28.16 ; PTBP1 target 28.16]”: the activity (PTBP1/total protein relative to NT) was found to be 0.464.
